This note sets out measurements from US20210115113A1 (CITY OF HOPE, published 2021).

In experiment [1] the target is murine 72A1 (m72A1), anti-EBV gp350 neutralizing antibody from hybridoma HB168. The experiment in a line: ELISA, mAb 10 µg/ml captured on soluble gp350, HRP secondary 1:2,000. (In general: An ELISA detects its analyte on a solid surface through an enzyme-linked reagent.)
In experiment [2] the target is humanized 72A1 (h72A1). Described as above.
Experiment [3] deals with EBV gp350 on EBV-eGFP virions (Epstein-Barr virus) (UniProt P03200). The experiment in a line: cell-based or functional assay.
Experiment [4] concerns the target T1, EBV gp350 on EBV-eGFP virions (Epstein-Barr virus, UniProt P03200 1-907).
T1 sequence: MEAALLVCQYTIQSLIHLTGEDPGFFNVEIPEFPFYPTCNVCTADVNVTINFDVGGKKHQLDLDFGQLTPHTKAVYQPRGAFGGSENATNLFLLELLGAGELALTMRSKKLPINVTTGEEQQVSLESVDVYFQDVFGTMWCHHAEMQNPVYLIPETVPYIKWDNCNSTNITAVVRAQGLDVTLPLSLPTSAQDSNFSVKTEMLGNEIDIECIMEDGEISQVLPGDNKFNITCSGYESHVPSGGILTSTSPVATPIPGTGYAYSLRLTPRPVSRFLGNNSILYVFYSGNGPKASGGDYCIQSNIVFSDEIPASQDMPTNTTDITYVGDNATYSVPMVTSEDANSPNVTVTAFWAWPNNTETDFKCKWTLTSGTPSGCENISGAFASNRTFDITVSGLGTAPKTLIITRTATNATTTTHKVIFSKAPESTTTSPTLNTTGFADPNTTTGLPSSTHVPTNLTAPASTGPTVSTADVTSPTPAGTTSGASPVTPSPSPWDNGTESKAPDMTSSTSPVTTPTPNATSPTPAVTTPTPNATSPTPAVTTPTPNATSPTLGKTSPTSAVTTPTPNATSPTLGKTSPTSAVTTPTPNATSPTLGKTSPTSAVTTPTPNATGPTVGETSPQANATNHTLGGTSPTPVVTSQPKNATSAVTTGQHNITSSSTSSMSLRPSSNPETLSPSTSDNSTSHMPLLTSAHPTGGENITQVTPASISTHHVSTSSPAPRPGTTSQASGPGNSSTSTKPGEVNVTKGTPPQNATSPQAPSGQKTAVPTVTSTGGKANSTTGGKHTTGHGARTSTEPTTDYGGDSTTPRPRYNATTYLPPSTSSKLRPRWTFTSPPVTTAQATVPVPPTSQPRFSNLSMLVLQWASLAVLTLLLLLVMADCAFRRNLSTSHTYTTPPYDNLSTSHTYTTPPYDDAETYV
Description: cell-based or functional assay.

Experiment [5] deals with T2, EBV gp350 expressed on the surface of stably transfected CHO cells (Epstein-Barr virus, UniProt P03200 1-907).
T2 construct: also called native gp350; gp350 expressing CHO cells
T2 sequence: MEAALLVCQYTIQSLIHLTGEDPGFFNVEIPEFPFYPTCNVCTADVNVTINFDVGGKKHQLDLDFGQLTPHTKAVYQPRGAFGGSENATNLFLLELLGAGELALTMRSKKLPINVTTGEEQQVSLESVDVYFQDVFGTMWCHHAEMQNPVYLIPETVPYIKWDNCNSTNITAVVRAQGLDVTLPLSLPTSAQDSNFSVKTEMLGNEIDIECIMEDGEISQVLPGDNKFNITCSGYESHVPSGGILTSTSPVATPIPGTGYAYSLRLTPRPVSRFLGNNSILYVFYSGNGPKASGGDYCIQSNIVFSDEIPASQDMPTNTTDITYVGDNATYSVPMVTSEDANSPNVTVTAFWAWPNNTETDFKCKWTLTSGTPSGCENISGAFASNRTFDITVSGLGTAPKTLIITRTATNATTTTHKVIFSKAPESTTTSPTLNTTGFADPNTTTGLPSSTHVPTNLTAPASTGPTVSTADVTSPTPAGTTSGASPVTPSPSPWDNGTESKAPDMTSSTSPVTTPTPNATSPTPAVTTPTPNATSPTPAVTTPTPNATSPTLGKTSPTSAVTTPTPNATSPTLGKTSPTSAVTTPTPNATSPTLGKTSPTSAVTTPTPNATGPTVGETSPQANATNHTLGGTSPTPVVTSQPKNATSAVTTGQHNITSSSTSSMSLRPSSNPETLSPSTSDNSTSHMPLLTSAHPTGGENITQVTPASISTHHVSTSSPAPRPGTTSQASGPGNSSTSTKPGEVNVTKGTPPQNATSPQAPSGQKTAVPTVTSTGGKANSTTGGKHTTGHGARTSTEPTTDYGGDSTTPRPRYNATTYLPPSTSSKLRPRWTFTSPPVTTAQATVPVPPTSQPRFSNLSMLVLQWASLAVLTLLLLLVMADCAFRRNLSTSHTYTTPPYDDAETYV
The experiment in a line: cell competition (flow), unlabeled 125 µg/ml; competitor: biotinylated m72A1 1 µg/ml.

For experiment [6], the target named is T2, EBV gp350 expressed on the surface of …. Description: cell competition (flow), unlabeled 250 µg/ml; competitor: biotinylated m72A1 1 µg/ml.
Experiment [7] has the same target. The experiment in a line: cell competition (flow), unlabeled 500 µg/ml; competitor: biotinylated m72A1 1 µg/ml.
Experiment [8] has the same target. Description: cell competition (flow), unlabeled 67.5 µg/ml; competitor: biotinylated m72A1 1 µg/ml.
Experiment [9] shares this target. The experiment in a line: cross-competition on gp350-CHO cells (flow), unlabeled 500 µg/ml; competitor: biotinylated HB1.
For experiment [10] the target is unchanged. The experiment in a line: cross-competition on gp350-CHO cells (flow), unlabeled 500 µg/ml; competitor: biotinylated HB5.
Experiment [11] has the same target. The experiment in a line: cross-competition on gp350-CHO cells (flow), unlabeled 500 µg/ml; competitor: biotinylated 54A1.
Experiment [12] has the same target. Description: cross-competition on gp350-CHO cells (flow), unlabeled 500 µg/ml; competitor: biotinylated HB11.
For experiment [13] the target is unchanged. Description: cross-competition on gp350-CHO cells (flow), unlabeled 500 µg/ml; competitor: biotinylated HB17.
Experiment [14] has the same target. The experiment in a line: cross-competition on gp350-CHO cells (flow), unlabeled 500 µg/ml; competitor: biotinylated HB20.
Experiment [15] has the same target. The experiment in a line: cross-competition on gp350-CHO cells (flow), unlabeled 500 µg/ml; competitor: biotinylated h72A1.
The target is the same in experiment [16]. The experiment in a line: cross-competition on gp350-CHO cells (flow), unlabeled 500 µg/ml; competitor: biotinylated m72A1.

Chain of murine 72A1 (m72A1), anti-EBV gp350 neutralizing antibody from hybridoma HB168 (VH, as listed by the source limits assumed, chain 1 of 2): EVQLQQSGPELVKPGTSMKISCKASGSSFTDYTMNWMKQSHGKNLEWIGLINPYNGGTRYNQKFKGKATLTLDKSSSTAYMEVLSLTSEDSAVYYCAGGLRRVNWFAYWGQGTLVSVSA
Chain of murine 72A1 (m72A1), anti-EBV gp350 neutralizing antibody from hybridoma HB168 (VL, as listed by the source limits assumed, chain 2 of 2): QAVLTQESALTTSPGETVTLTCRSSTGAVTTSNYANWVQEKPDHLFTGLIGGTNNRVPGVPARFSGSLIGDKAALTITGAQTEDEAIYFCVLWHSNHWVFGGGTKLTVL
Chain of humanized 72A1 (h72A1) (VH, as listed by the source limits assumed, chain 1 of 2): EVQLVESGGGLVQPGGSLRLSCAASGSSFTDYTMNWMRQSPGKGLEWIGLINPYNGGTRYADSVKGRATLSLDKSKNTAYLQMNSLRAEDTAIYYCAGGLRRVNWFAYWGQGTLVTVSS
Chain of humanized 72A1 (h72A1) (VL, as listed by the source limits assumed, chain 2 of 2): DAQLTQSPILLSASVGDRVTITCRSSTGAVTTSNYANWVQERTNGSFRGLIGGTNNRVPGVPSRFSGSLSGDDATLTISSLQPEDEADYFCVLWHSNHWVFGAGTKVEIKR

In experiment [1], “HRP-conjugated goat anti-mouse IgG (antibody)” displayed a fold ELISA signal above the background (1× PBS) of 28 fold and a fold ELISA signal as compared to goat anti-human IgG of 9 fold.

In experiment [2], “HRP-conjugated goat anti-human IgG (antibody)” came in with a fold ELISA signal over the background of 2100 fold.

Regarding “murine 72A1 (m72A1), anti-EBV gp350 neutralizing antibody from hybridoma HB168”, in experiment [3], the % blocking of EBV-eGFP infection of Raji cells at 12.5 µg/ml worked out at 93% and the % neutralization of EBV-eGFP infection of Raji cells, 12.5-100 µg/ml lay in the range of 35 to 80%.

B1: HB20 (antibody, V domains shown)
VH: ELVKPGASVKLSCKASGYTFTSYWIQWVKQRPGQGLEWIGEINPTNGHTNYNEKFKTKATLTVDKSSSTAYMRLSSLTSEDSAVYYCARNLYYYGRPDYWGQGTSVTVSS
VL: SSLSASLGDRVTISCRASQDIGNYLNWYQQKPDGTVKLLIYYTSRLHSGVPSRFSGSGSGTDYSLTISNLEQEDIATYFCQQGNALPPTFGGGTKLEIKR
As to B1, the “% neutralization of EBV-eGFP infection of Raji cells at 100 µg/ml” value in [4] was found to be 90%. Further, the “% inhibition of biotinylated nAbs” value in [5] stood at 87%; in experiment [6] it was 91%; in [7] it was 96%; in experiment [8] it was 89%; in [9] it was 88%; in experiment [10], 97%. The “% inhibition of biotinylated nAbs” value in experiment [11] was determined as 0%; in experiment [12] it was 89%; in experiment [13], 13%; in experiment [14], 59%; in experiment [15] it was 96%; in experiment [16], 98%.
